Our source for the switch fluorescence ratio values is the supplement of paper PMC10126150.

± gives the standard deviation of the averaged measurements.
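Further: ATP exposure 15 min at 22 °C before imaging.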

The data set relates to ATP. Description: switch fluorescence ratio, 500 uM ATP over buffer (Cy3 cluster intensity, sum of 5 cycles each) (fold (ratio)); higher = stronger signal-on switching upon ATP binding; sequences stand for … in TCGTCGGCAGCGTCAGATGTGTATAAGAGACAGTTTTTTTTTTTTTTTTTTTTTTTTT…TC. Particulars: aptamer strand: ATP DNA aptamer (quencher-CACCTGGGGGAGTATTGCGGAGGAAGG + anchor), 100 nM annealed; ATP concentration: 500 uM. The method, boiled down:
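Between each of five buffer/ATP cycles, the flow-cell was stripped with NaOH and re-annealed. Each cycle imaged Cy3-labelled switching-strand clusters, annealed to 100 nM quencher-labelled ATP aptamer on a modified Illumina MiSeq flow-cell, first in selection buffer and then after 15 min with 500 uM ATP at 22 °C. The fluorescence ratio is summed target-cycle over summed buffer-cycle Cy3 intensity per cluster, averaged per switch-domain sequence, with clusters outside 100-1000 RFU excluded.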
Turning to ATTAATTAGA, the switch fluorescence ratio came to 0.975 ± 0.041.
For TCGTCGGTGG, the switch fluorescence ratio is 1 ± 0.011.
In the case of GCCATCGATC, the switch fluorescence ratio stood at 1.017 ± 0.0079.
As for TGATACCGTG, the figure is 1.01 ± 0.017; as for CGCTATTGGG, 1.046 ± 0.0086; as for GATTCGTCGG, 1.01 ± 0.021.
Take GCGGGCTTGG: the switch fluorescence ratio amounted to 0.974 ± 0.015.
As for CGTTTGGAAT, the figure is 1.03 ± 0.051; as for GGTCTACTTT, 0.998 ± 0.021; as for ATTGAATTAA, 1.04 ± 0.02.
As for CGTATTCTAG, the figure is 1 ± 0.023.
As for GAGAAAAAGG, the figure is 0.976 ± 0.013.
In the case of GCTATTAAAG, the switch fluorescence ratio is 1 ± 0.026.
Consider GTGGCGGGAG, for which the switch fluorescence ratio worked out at 0.997 ± 0.017.
As for TTACGGGCTT, the figure is 0.989 ± 0.027; as for GGTGTATTTA, 1.02 ± 0.017; as for ACGGGTAATG, 1.01 ± 0.035.
As for GAGTTTAAGA, the figure is 0.979 ± 0.024; as for ATAGGGGTGT, 1.01 ± 0.062; as for GGAACGAAGA, 0.98 ± 0.028.
As for GGGGGGGTGT, the figure is 1.01 ± 0.05; as for CGACGACTGG, 1.01 ± 0.017; as for TTAGGCACGC, 1.01 ± 0.023.
Turning to TGTTGCTAGG, the switch fluorescence ratio is 0.992 ± 0.031.
As for GAAATGGGTT, the figure is 0.957 ± 0.063; as for CATTAAAATT, 0.994 ± 0.028; as for AGGGAAAAAA, 1.01 ± 0.043.
As for GTTGAGAGTG, the figure is 1 ± 0.049; as for AGGGGTATTT, 1.01 ± 0.041; as for TCAGCGCTTT, 0.977 ± 0.032.
As for GCGGAGGCTG, the figure is 0.97393 ± 0.00027; as for GACGAAGTTG, 1.01 ± 0.029; as for TCGATTATTT, 1.016 ± 0.0059.
For AGGCTAGGGC, the switch fluorescence ratio was determined as 0.993 ± 0.022.
Turning to AAAAAGGGT, the switch fluorescence ratio turned out to be 0.987 ± 0.032.
As for AGGATTAAAT, the figure is 0.987 ± 0.026; as for GGGTTTTTTC, 0.9798 ± 0.0046.
As for CGTGCTTAGT, the figure is 1.02 ± 0.022; as for TTCGTTATGG, 1 ± 0.046; as for GGGCTGGAAT, 1 ± 0.02.
As for GACGTGTTGG, the figure is 1.01 ± 0.065; as for ACCAATGGGG, 1.02 ± 0.036; as for TTAGGGGGGC, 1.02 ± 0.053.
CTGGGGAGCT: the switch fluorescence ratio is 1.03 ± 0.05.
As for TAAAAAAGAG, the figure is 0.98 ± 0.03; as for ACACAGGGGG, 1.0997 ± 0.00043; as for ATTGAATCAT, 1.005 ± 0.0033.
As for GTGAGAAGAA, the figure is 0.97 ± 0.01.
As for AGGATCTCGA, the figure is 0.996 ± 0.033; as for AAGGAGGCAA, 1.255 ± 0.0085.
For CTACTAGAGC, the switch fluorescence ratio is 1.02 ± 0.044.
As for TGTTGCCCCT, the figure is 1.02 ± 0.051; as for TTATCTTTTT, 1 ± 0.032; as for CCAAGTTCGG, 1.02 ± 0.011.
As for AGGGTCGATG, the switch fluorescence ratio was determined as 1.07 ± 0.073.
Turning to CCAAATCGGA, the switch fluorescence ratio is 1 ± 0.022.
As for GGGCCTGCGC, the figure is 1 ± 0.015.
As for CGTCGAGGCG, the figure is 0.971 ± 0.035; as for TCGCAAATTT, 1.3 ± 0.12; as for GGGGCGTATC, 1.01 ± 0.04.
As for TTATTATGGC, the figure is 0.993 ± 0.05.
As for CTATGCGGTC, the switch fluorescence ratio was 2.39 ± 1.8.
As for AAGGGTCGCA, the figure is 1.03 ± 0.036; as for TAGAAGGGAA, 1.03 ± 0.063.
As for CACTGTGACA, the figure is 1.083 ± 0.0052; as for GCTGGGCACA, 0.967 ± 0.03; as for TAGAGGAGCT, 1 ± 0.038.
As for AAGTGGGAAC, the figure is 1.02 ± 0.016.
For the sequence GTGTAGGGGT, the switch fluorescence ratio turned out to be 0.9779 ± 0.0083.
Consider TTTCATTGGG, for which the switch fluorescence ratio was found to be 1.01 ± 0.032.
Consider TGATTGTTAG, for which the switch fluorescence ratio turned out to be 0.988 ± 0.023.
As for CAAGACACGT, the figure is 0.977 ± 0.032; as for TCCTTTTTGC, 1.07 ± 0.069; as for GATACTGATA, 1.032 ± 0.0098.
As for GAGTCCATTG, the figure is 1.02 ± 0.026; as for GAGGTCTGTT, 0.959 ± 0.029.
GGTTGCTGTC: the switch fluorescence ratio worked out at 0.964 ± 0.045.
As for GGGAGAGTTT, the figure is 1.01 ± 0.026; as for TTTTTTTCCC, 1.01 ± 0.018.
As for TTTGATTAT, the figure is 0.996 ± 0.012; as for GGGATACAGC, 1.03 ± 0.059; as for AGTTTTGTCG, 1.01 ± 0.022.
As for GGGGGGAGGG, the figure is 1 ± 0.052; as for AGGGGTATAT, 1.02 ± 0.028.
Consider GATCACTGTT, for which the switch fluorescence ratio is 0.996 ± 0.062.
As for GGTTGGCTCG, the figure is 1 ± 0.025.
As for AGCCTCGTGG, the figure is 0.992 ± 0.019.
Regarding ATGTGACAGC, the switch fluorescence ratio is 0.955 ± 0.062.
As for GGGGTCATGT, the figure is 1.03 ± 0.015.
As for TAGGCACGCG, the figure is 1.027 ± 0.01; as for TTTCTGTGGG, 0.986 ± 0.016.
As for AGAGACTATT, the figure is 1.01 ± 0.0095; as for ACGAAAATTA, 1.12 ± 0.14; as for CTTTATTTGT, 1.001 ± 0.009.
With TTAAAGGGTT, the switch fluorescence ratio worked out at 1.04 ± 0.12.
As for ATTAGGTCGG, the figure is 0.979 ± 0.023.
As for GGATGGTTCA, the figure is 1.05 ± 0.072; as for GATTAGGGTG, 1.01 ± 0.026; as for TATCGTTGGA, 1.03 ± 0.018.
With CAGGTTTGGT, the switch fluorescence ratio was found to be 0.984 ± 0.021.
As for GGACTTTGGC, the figure is 0.983 ± 0.042.
As for TTCAGATTAC, the figure is 1.04 ± 0.024; as for CAGACGTAGG, 1.01 ± 0.056; as for TAAGGTGTTT, 1.08 ± 0.076.
As for TACAGCTAAA, the figure is 1.03 ± 0.032; as for TATAAAGAGA, 0.9978 ± 0.0057; as for GGTATACGCA, 1.14 ± 0.028.
TTATTTGCGG: the switch fluorescence ratio turned out to be 0.989 ± 0.025.
As for GTAATATGCG, the figure is 0.987 ± 0.018.
As for AGTCCGATGT, the figure is 1.04 ± 0.038.
As for TAAAGTTTGC, the figure is 0.995 ± 0.017; as for ATAAGGTCGC, 0.927 ± 0.021.
Consider GGAGATTTTA, for which the switch fluorescence ratio was 1.04 ± 0.068.
For ATGTAAGGGG, the switch fluorescence ratio was found to be 0.9951 ± 0.0039.
As for GGATGGTTTC, the figure is 1.01 ± 0.023; as for AGCCGTACTC, 1.2 ± 0.23; as for TTTTTTAGTG, 0.981 ± 0.026.
Consider GAAGTATTTT, for which the switch fluorescence ratio amounted to 0.962 ± 0.027.
As for AAGTTTAAGT, the figure is 0.989 ± 0.013.
Take TGGTAGAAGT: the switch fluorescence ratio is 0.988 ± 0.022.
